Measurements reported in patent publication US20240174754A1 (published 2024).

Tests used:
[1] = molecular target: Human CD8+ T Cells; assay: FACS binding to human CD8+ T cells; Donor KP63218
[2] = molecular target: Human CD8+ T Cells; assay: FACS binding to human CD8+ T cells; Donor KP63715

- EC50 [1]: 10.8 ng/mL
- EC50 [2]: 3.18 ng/mL
B1: PA015 (antibody, V domains shown)
VH: QVTLRESGPALVKPTQTLTLTCTVSGFSLSTFGMGVGWIRQPPGKALEWLAHIWWDDDKWYELALKSRLTISKDTSKNQVVLTITNMDPVDTATYYCARVIYYGSRSAYYSMDYWGQGTTVTVSS
VL: DVVMTQTPLSLSVTPGQPASISCKSSQSIVHSNAHTYLEWYLQKPGQSPQLLIYKVSNRFSGVPDRFSGSGSGTDFTLKISRVEAEDVGVYYCFQGSHVPVTFGQGTKLEIKR
